The source of these data is paper doi:10.1101/2023.11.26.568766 (bioRxiv, 2023).

This series deals with the molecule itself. Briefly: crystal structure.

B1: XccOpgD (D379N), OpgD from Xanthomonas campestris pv. campestris (enzyme)
chain: AKAVGLRRLGQPQPFDYAWLKGQARALAKAPYKSHKQVLPGPLESLNWDQYQSIRYRQDHALWADGNGKFQAKFFHLGLYFHTPVHIYDIVDGKAQQLAYDPAAFDYGRSGLGGKQLPKDLGFAGFRLNTRKDTDRDFSAFLGASYFRAVGKEGQYGQSARGLAIDTGTGGPEEFPDFIAYYLEQPADDSDTVVVYGLLDSPSVSGAYRFAITNGEVLVMDIDSALYPRKAIERLGIGPCTSMYQTGENDRRMDWDWRPEIHDTDGLAMWTGGGEWIWRPLCNPPHLRFNMFVDENPRGFGLLQRDRNFDHYQDDGVFYEKRPCLWVEPKSGWGKGSVQLVEIPTVDETFNNIVAFWNPQAKPQPGQELLMGYRLYWGAHPPASSPLAHCVATRTGLGGIVGQKRSHFSWRFAVDFAGGELAALAKDPKAKVEAVLQVSRGTTEIVSARPLHELKGYRAMFDLVPPDEGTQQIDIRLFLRANGKPLTETWLYQWTPPPASERKIY
As to B1, the binding result is “binds”.
